Measured values: US20250332297A1, “DLL3-SPECIFIC BINDING CONSTRUCTS AND THEIR USE IN RADIOTHERAPY” (MOLECULAR PARTNERS AG, priority 2024, published 2025)

Assays:
Cyno DLL3-ECD = experiment: SPR binding to cyno DLL3-ECD (Example 11); set-up: species or system cynomolgus monkey
Description: The DLL3 target protein from cynomolgus macaque (cyno) was produced similarly to the human target protein. It consisted of the extracellular domain of the cyno DLL3 protein (XP_005589253.1, Gene ID:102115332, residues 27 to 466, purchased from Evitria) linked via an Avi-tag (for site-directed biotinylation), followed by a 3C protease recognition site, to a Fc knob into hole. The target protein was expressed in CHO cells (Chinese hamster ovary cells) by Evitria and purified by a protein A derivative-based affinity chromatography followed by preparative size exclusion chromatography (SEC). The material was up-concentrated in PBS pH 7.4 to 0.53 mg/ml and in vitro biotinylated using recombinant BirA. The final material was monomeric on size exclusion and stored in PBS pH 7.4 at the final concentration of 0.26 mg/ml.
(§1) The binding of 2D ankyrin repeat protein MAM279 as well as of MAM279 conjugated to the chelator DOTAM (the conjugation was performed as described in Example 3) to different target proteins was analyzed by Surface Plasmon Resonance (SPR). Specifically, the proteins analyzed were (i) MAM279 (SEQ ID NO: 11), with a Glycine-Serine (GS) at its N-terminal end and an N-terminal His-tag (SEQ ID NO: 19); and (ii) MAM279 (SEQ ID NO: 11), with a Glycine-Serine (GS) at its N-terminal end and a tag (SEQ ID NO: 10) at its C-terminal end (resulting in GS-MAM279-tag (SEQ ID NO: 15)), conjugated to the chelator DOTAM as described in Example 3.
(§2) A surface plasmon resonance (SPR) assay was used to determine the binding kinetics of the two proteins (i.e. MAM279 with and without conjugation to chelator) to different targets: the Extra-Cellular Domain (ECD) of human DLL3, the ECD of cynomolgus monkey DLL3, the N-Terminal Domain (NTD) only of human DLL3, and the NTD dog DLL3. The data were generated using BioRad ProteOn instrument in SPR running buffer (PBS, pH 7.4 containing 0.005% Tween 20©). […] The chip was coated with biotinylated target to reach a signal intensity of 1516 RU (human ECD), 257 RU (human NTD), 1500 RU (cyno ECD) and 228 RU (dog NTD). All analytes (various concentrations in 3-fold dilutions ranging from 500-6.17 nM) were injected in succession for 240 s (100 μl/min) and dissociation was recorded for 10800 s (100 μl/min). Each injection was followed by a regeneration step with 16 mM H3PO4 for 18 s. […] The obtained SPR traces were used to determine on-rate and off-rate interaction parameters.

Human DLL3-ECD = molecular target: T1, Human DLL3-ECD (Homo sapiens, UniProt Q9NYJ7); experiment: SPR binding to human DLL3-ECD (Example 11); settings: immobilized biotinylated target, 1:1 Langmuir, Tables 14, 15
T1 construct: human DLL3 protein (Q9NYJ7, Gene ID: 10683, residues 27 to 466) linked via an Avi-tag; 3C protease recognition site (C); Fc knob into hole (C); purchased Evitria; host or cells: CHO cells
T1 sequence (Q9NYJ7 27-466): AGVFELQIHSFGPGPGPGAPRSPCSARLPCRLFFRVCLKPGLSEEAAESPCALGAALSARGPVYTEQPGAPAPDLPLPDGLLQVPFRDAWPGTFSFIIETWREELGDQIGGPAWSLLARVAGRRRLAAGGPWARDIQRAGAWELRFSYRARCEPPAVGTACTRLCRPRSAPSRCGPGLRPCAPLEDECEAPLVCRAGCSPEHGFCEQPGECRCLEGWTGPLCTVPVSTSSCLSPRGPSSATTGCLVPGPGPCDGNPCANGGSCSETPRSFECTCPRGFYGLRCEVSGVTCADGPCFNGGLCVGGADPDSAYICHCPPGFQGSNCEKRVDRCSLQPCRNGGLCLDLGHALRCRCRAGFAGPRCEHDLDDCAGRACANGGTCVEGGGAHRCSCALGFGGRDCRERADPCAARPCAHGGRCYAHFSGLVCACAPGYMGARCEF
Description: Two target formats were chosen: i) the first target protein consisted of the extracellular domain of human DLL3 protein (Q9NYJ7, Gene ID: 10683, residues 27 to 466) linked via an Avi-tag (for site-directed biotinylation), followed by a 3C protease recognition site, to a Fc knob into hole (hDLL3-Avi-Fckih); ii) the second target protein consisted of a very similar design including more residues of the extracellular domain of DLL3 (Q9NYJ7, Gene ID: 10683, res 27-470), directly linked to the Fc knob into hole domain followed by an Avi-tag (hDLL3-Fckih-Avi).
hDLL3-Avi-Fckih was expressed in CHO cells (Chinese hamster ovary cells) by Evitria and purified by a protein A derivative-based affinity chromatography followed by preparative size-exclusion chromatography (SEC). The material was up-concentrated in PBS pH 7.4 to 0.69 mg/ml and in vitro biotinylated using recombinant BirA. The final material was monomeric on size exclusion and stored in PBS pH 7.4 at the final concentration of 0.35 mg/ml.
as §1, §2

[1] = SPR, immobilized biotinylated target, 1:1 Langmuir, Table 15

B1: MAM279-DOTAM: GS-MAM279-tag (SEQ ID NO: 15) conjugated to the chelator DOTAM via C-terminal tag and maleimide connector, no radionuclide (conjugate)
chain: GSDLGKKLLEAARAGQDDEVRELLKAGADVNAKDYFSHTPLHLAARNGHLKIVEVLLKAGADVNAKDFAGKTPLHLAADAGHLEIVEVLLKAGADVNAQDIFGKTPADIAADAGHEDIAEVLQKAAGSPTPTPTTPTPTPTTPTPTPTGSDLGKKLLAAAAQGQDDEVRELLKAGANVNAKDLFGYTPLHLAAWRGHLEIVEVLLKAGADVNAKDAAGETPLHLAAWFGHLEIVEVLLKAGADVNAQDLQGKTPADLAAKEGHEDIAEVLQKAAGSGSC
modifications: DOTAM chelator via maleimide on C-terminal tag; Ankyrin repeat protein with tag (GS-MAM279-tag)
Koff Cyno DLL3-ECD (Cyno DLL3-ECD; [1]): 0.00125 s⁻¹
Kon Cyno DLL3-ECD (Cyno DLL3-ECD; [1]): 36000 M⁻¹ s⁻¹
Koff Human DLL3-ECD (Human DLL3-ECD): 1.64e-05 s⁻¹
Kon Human DLL3-ECD (Human DLL3-ECD): 67400 M⁻¹ s⁻¹

B2: MAM279: Two domain (2D) ankyrin repeat protein: serum albumin-specific domain (SEQ ID NO: 7), PT linker, DLL3-specific domain of MAM093 (protein)
chain: DLGKKLLEAARAGQDDEVRELLKAGADVNAKDYFSHTPLHLAARNGHLKIVEVLLKAGADVNAKDFAGKTPLHLAADAGHLEIVEVLLKAGADVNAQDIFGKTPADIAADAGHEDIAEVLQKAAGSPTPTPTTPTPTPTTPTPTPTGSDLGKKLLAAAAQGQDDEVRELLKAGANVNAKDLFGYTPLHLAAWRGHLEIVEVLLKAGADVNAKDAAGETPLHLAAWFGHLEIVEVLLKAGADVNAQDLQGKTPADLAAKEGHEDIAEVLQKAA
modifications: Ankyrin repeat protein (MAM279)
fold lower affinity (higher KD) for cynomolgus monkey DLL3-ECD than for human DLL3-ECD (Cyno DLL3-ECD; SPR KD comparison): about 100 fold
Kd (Cyno DLL3-ECD; [1]): 22 nM
Koff Cyno DLL3-ECD (Cyno DLL3-ECD; [1]): 0.000978 s⁻¹
Kon Cyno DLL3-ECD (Cyno DLL3-ECD; [1]): 44500 M⁻¹ s⁻¹
Kd (Human DLL3-ECD): 0.174 nM
Koff Human DLL3-ECD (Human DLL3-ECD): 1.45e-05 s⁻¹
Kon Human DLL3-ECD (Human DLL3-ECD): 83500 M⁻¹ s⁻¹
